{"source": "patent US20230192820A1", "about": "(published 2023)", "molecular_target": "stabilized trimer of the full ectodomain of SARS-CoV-2 spike protein (residues 1-1208, NIAID VRC7471) (SARS-CoV-2, UniProt P0DTC2 14-1208)"}
{"binder": "MAb362 IgA1 (monomeric) (antibody, V domains shown) VH: QVQLVESGGGVVQPGRSLRLSCAASGFSFSSYGMHWVRQAPGKGLEWVAVIWYDGSDKYYADSVKGRFTISRDNSKNTLYLQLNSLRAEDTAIYYCARERYFDWIFDFWGQGTLVTVSS VL: not shown", "values": [{"measurement": "Kd", "result": 0.17, "unit": "nM"}]}
{"binder": "MAb362 IgG1 (antibody, V domains shown) VH: QVQLVESGGGVVQPGRSLRLSCAASGFSFSSYGMHWVRQAPGKGLEWVAVIWYDGSDKYYADSVKGRFTISRDNSKNTLYLQLNSLRAEDTAIYYCARERYFDWIFDFWGQGTLVTVSS VL: not shown", "values": [{"measurement": "Kd", "result": 27, "unit": "nM"}]}
